Tests used:
[1] = molecular target: N_(IDR1-core), N variant with IDR1, RBD and DD in which the 67-residue linker is replaced by a 12-residue GSA-linker (SARS-CoV-2)
[2] = molecular target: N_(IDR1-core), N variant with IDR1, RBD and DD in which the 67-residue linker is replaced by a 12-residue GSA-linker (SARS-CoV-2); assay: ITC; iTC200, 10°C; […]; 20 mM Tris-HCl pH 8.0, 150 mM NaCl, 5% glycerol; […]

| Substance | stoichiometry N [1] | Kd [2] |
| --- | --- | --- |
| N_(IDR1-core), N variant with IDR1, RBD and DD in which the 67-residue linker is replaced by a 12-residue GSA-linker (domain or fragment) | 2 | – |
| UPF2S, UPF2 variant comprising the MIF4G3 and the U1BD domains (from UniProt Q9HAU5 761-1227) (domain or fragment) | – | 2900 nM |
